{
  "source": "paper PMC8591229",
  "target": "T1, human islet amyloid polypeptide (IAPP) (human) (not fully specified)",
  "T1 chain": "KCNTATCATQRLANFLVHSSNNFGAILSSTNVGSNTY",
  "assay": "seeded thioflavin T fluorescence aggregation kinetics; 5 uM monomeric IAPP with preformed IAPP fibril seeds at 0 to 33% (monomer equivalents), 33 mM acetate, 150 mM KCl, pH 5.3, 37 C, quiescent; elongation (monomer added to fibril ends) from the initial gradient at 33% seeds and the fibril length by cryo-TEM",
  "details": "remark: other sources report otherwise",
  "note": "Bridge positions count the residues as written; N and C are the ends. Ends that are not written are not given here.",
  "data": [
    {"binder": "KCNTATCATQRLANFLVHSSNNFGAILSSTNVGSNTY-NH2 (disulfide 2-7 (inferred); not fully specified)", "note": "[human islet amyloid polypeptide (IAPP)]", "values": [
      {"measurement": "elongation rate constant k+", "value": 500000, "unit": "M⁻¹ s⁻¹"}
    ]}
  ]
}
